Literature values, collected in publication PMC4899099.

Target: Carboxypeptidase E (UniProt P04836)
UniProt P04836, sequence (P04836 42-475): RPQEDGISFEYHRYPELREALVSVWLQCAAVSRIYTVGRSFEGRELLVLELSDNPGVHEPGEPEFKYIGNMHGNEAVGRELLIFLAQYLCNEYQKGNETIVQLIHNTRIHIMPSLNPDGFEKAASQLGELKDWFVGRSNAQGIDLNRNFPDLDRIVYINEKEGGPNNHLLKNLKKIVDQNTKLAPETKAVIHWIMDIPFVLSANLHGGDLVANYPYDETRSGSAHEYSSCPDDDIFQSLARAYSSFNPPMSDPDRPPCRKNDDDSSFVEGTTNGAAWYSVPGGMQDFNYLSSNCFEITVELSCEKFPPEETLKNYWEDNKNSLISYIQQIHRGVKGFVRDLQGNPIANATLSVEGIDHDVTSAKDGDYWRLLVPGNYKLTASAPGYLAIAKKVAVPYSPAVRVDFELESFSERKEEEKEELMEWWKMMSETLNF

Kd: 6 µM
Substance: N-POMC(1-26) 1-26 (from UniProt P01190)
